# Measured values: the supplement of paper PMC9170038
# Test system: MS2 coat protein
# Assay: apparent KD of MS2 coat protein; designed switch direction (-1 OFF switch, 1 ON switch): -1; higher = weaker reporter binding
# Procedure, shortened: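 RNA switches sharing common flanks were transcribed by stalled E. coli RNA polymerase on Illumina chips. A doubling series of SNAP-549-labelled MS2 coat protein, from 0.7 or 1.5 nM to 3 µM, was applied in Tris-HCl pH 7.5 buffer with KCl, MgCl2, BSA, DTT, tRNA and Tween-20. Each step lasted 0.8–1.5 h at the bottom of the series and 10–20 min at the top. Normalised cluster fluorescence was curve-fitted, giving apparent KD as the per-design median over clusters.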
# [1] = input ligand: microRNA oligo, concentration not stated
# [2] = Eterna round: R95, input ligand: microRNA oligo, concentration not stated
# [3] = Eterna round: R95, input ligand: FMN 200 uM
# [4] = Eterna round: R95, input ligand: none
Sequence,apparent KD of MS2 coat protein (input ligand: FMN 200 uM),apparent KD of MS2 coat protein (input ligand: none),apparent KD of MS2 coat protein [2],also measured
"AAAUUAGCAAGUAGGUCCGACAUGAGGAUCACCCAUGUUAUCUGAAAUAACGCUGCAUGAAAGUGCGCUCGUCUUAG [Sensor-V1 #9] (Eterna round: R97, puzzle: Sensor, turn-off variant 1)",65.3 nM,73.9 nM,,
"AAUUGGUUAGGAUAUCGGGAAUAUCACAUGAGGAUCACCCAUGUGACCUUUAUGGUGUCAUGAGAAGGGACGCGGA [Eternabot (L1) Solution 11] (Eterna round: R97, puzzle: Exclusion 5)",27.9 nM,24.5 nM,,
"CUGAGAUCAGGAUAUACAUGAGGAUCACCCAUGUAAAGUAGCUUGCGUACAGGCAGAUGUAGAAGGGAUUUCGG [Mod of JL 5 - Jieux - Exclusion 3] (Eterna round: R97, puzzle: Exclusion 3)",29.7 nM,26.5 nM,,
"CUGCUGGAGCGUUGCUUUGGUCGUACAUGAGGAUCACCCAUGUAGGAUAUGGUAAAAUUUGCUUGCUAGAAGGAUAGAGUGGUC [salish99_ExNG3_r04_613] (Eterna round: R96, puzzle: Exclusion NG 3)",117 nM,64.6 nM,,apparent KD of MS2 coat protein [1]: 63.5 nM
"ACCUCUGAGGAGGAUAUACAGUGCGAAAGGACAGUAGAAGGCUUCACAUGAGGAUCACCCAUGUCGAAAAGUGA [EX6 #80] (Eterna round: R97, puzzle: Exclusion 6)",127 nM,92.6 nM,,
"CCGCUACAUGAGGAUCACCCAUGUCAGGAUAUCGUACGUUCGUCGAUAGACGAUCGUACGAGAAGGGUGAGCGG [Mat - Exclusion 1 - Eli Mod - D37] (Eterna round: R97, puzzle: Exclusion 1)",156 nM,209 nM,,
"AGUACUAACACGAAAGUGUUAGUUCAAUAAGCUUGUGAAACAUGAGGAUCACCCAUGUCCUCAUAAGCUCGUCUUAU [salish99_TOv2_r3_040] (Eterna round: R96, puzzle: Sensor v3, turn-off variant 2)",15.2 nM,17.5 nM,,apparent KD of MS2 coat protein [1]: 461 nM
CCGCAAAUGGAGGAUAUCGUAUCGGAUACGAUACGAGAAGGCUAAACAUGAGGAUCACCCAUGUGUCCUAGCGG [Fiskers Ex 6 - 34] (puzzle: Exclusion 6),,,10.9 nM,
"GAGAGGAGUGUAGGAUAUUUAAGGGAGGAGGAGGGAGAAGGACAUGAGGAUCACCCAUGUAGGAAGAGAGGAGGAGUACAGGAG [Default title] (Eterna round: R96, puzzle: Exclusion NG 1)",46.1 nM,32.3 nM,,apparent KD of MS2 coat protein [1]: 19.3 nM
GCCAGAGCAGGAUAUUCAAUAUCACACAUGAGGAUCACCCAUGUCUAUCGAAAGAUAGAGGGAGAAGGGCUCUGGC [Mat - Exclusion 5 - Eli mod - D94] (puzzle: Exclusion 5),,,55.2 nM,
"ACAUGAGGAUCACCCAUGUGGACGUAAAGGCUCAUGUAGAGUGAGGAUAUGUGAGACGAACGAGAACAGAAGGCACAAGACAGG [Deportation 6 - Jieux - Exclusion NG 3] (Eterna round: R96, puzzle: Exclusion NG 3)",15.7 nM,19.9 nM,,apparent KD of MS2 coat protein [1]: 16.7 nM
UUUUAACAUGAGGAUCACCCAUGUGAGGAUAUCGAAAUUUAUAUUAAUAUUUUUAAUACGAGAAGGCACAUUUU [JMF 70] (puzzle: Exclusion 1),,,49.6 nM,
"GGGCGUUAAGGAUAUGAUUGAAGGAACAUGAGGAUCACCCAUGUUCGGUGCCUAAUGUUCUCAGAAGGUGAUAGCU [Eternabot (L1) Solution 50] (Eterna round: R97, puzzle: Exclusion 5)",186 nM,175 nM,,
GUGGCACAUGAGGAUCACCCAUGUCAGGAUAUCGCGUGGUUUUUUGCGGCCGCGCGCGCGAGAAGGGACGUCUU (puzzle: Exclusion 1),,,31.1 nM,
"GACUAGGCAGGAUAUACAUGAGGAUCACCCAUGUGUCUGCGUUGGGCACGUGAACACCGUAGAAGGGCCUUGAC [ChP 13.04.2015 #14] (Eterna round: R96, puzzle: Exclusion 3)",36.4 nM,20.2 nM,,apparent KD of MS2 coat protein [1]: 16.2 nM
"GCAGUUCGAGUUAGGAUAUGAUGUUAAUUCGGAUAUCAGAAGGAACUUGAGGAUCACCCAAGUAUAGAUGUUGU [JR_BMEx4_Sub061] (Eterna round: R97, puzzle: Brourd's mod of Exclusion 4)",31.3 nM,19.8 nM,,
"GUUGACGGAGGAUAUACAGCCGAGAUCCACCGUGUGGAGGAACAUGAGGAUCACCCAUGUAGAAGGCUGCAGUA [Eternabot (L2) Solution 92] (Eterna round: R97, puzzle: Exclusion 2)",16 nM,17.1 nM,,
UUCAUGUGAGGAUAUAGUACUCCUUCUAUUAUUUUUGAGUAUUAGAAGGCACAUGAGGAUCACCCAUGUAGUAC [Ex4 - 3 - 39] (puzzle: Exclusion 4),,,24.6 nM,

Sequence,apparent KD of MS2 coat protein (input ligand: FMN 200 uM),apparent KD of MS2 coat protein (input ligand: none),apparent KD of MS2 coat protein [2],also measured
UUUUAACAUGAGGAUCACCCAUGUGAGGAUAUCGUUAUUUAUAUUAAUAUUAAUAAAACGAGAAGGCACAUUUU [JMF 6] (puzzle: Exclusion 1),,,117 nM,
"GGCAUGUAAGGAUAUGCCACGCAGUCCUUUGGGCUGCGUAAGCAGAAGGUACAUGAGGAUCACCCAUGUGAUAA [jl-ex4-4.56 ViennaUCT mod] (Eterna round: R97, puzzle: Exclusion 4)",865 nM,591 nM,,
"GGAAGUAGAAACCGAUCCUACAUGAGGAUCACCCAUGUAGCAAGACGUGCACGCGAAGCUCGUCAGACUACCAGAAU [salish99_TOv1_r3_010] (puzzle: Sensor v3, turn-off variant 1)",,,268 nM,apparent KD of MS2 coat protein [3]: 341 nM; apparent KD of MS2 coat protein [4]: 286 nM
CGUGACUCAGGAUAUGUAUAAUAUCACAUGAGGAUCACCCAUGUCCAGCGAAAGCUGGAAGCAGAAGGGAGUCACG [Fiskers Ex 5 - 39] (puzzle: Exclusion 5),,,41.6 nM,apparent KD of MS2 coat protein [3]: 85.1 nM; apparent KD of MS2 coat protein [4]: 111 nM
"GGUACUAACAGCUGACUGUUAGUACUGUAGGUUUGUGUUACAUGAGGAUCACCCAUGUCCUCAUAGGCUCGUCUUGU [JL-sv3-2.24 mat747 mod] (puzzle: Sensor v3, turn-off variant 2)",,,91.5 nM,apparent KD of MS2 coat protein [3]: 281 nM; apparent KD of MS2 coat protein [4]: 739 nM
UUGUGCAAAGGAUAUACGUCCGACCUCGUGGAACUGAGAAUACAUGAGGAUCACCCAUGUAGAAGGUUGCCGAG [Racereus] (puzzle: Exclusion 2),,,10.5 nM,
"GAUUAUGCGAGCUUUAGGGACAUGAGGAUCACCCAUGUUCGUCUUAUUGAUCUGGGUACACUGACAUACCUAAAUCU [JMF 70] (puzzle: Sensor v3, turn-off variant 1)",,,115 nM,apparent KD of MS2 coat protein [3]: 88.8 nM; apparent KD of MS2 coat protein [4]: 110 nM
"GCUCGACAUGAGGAUCACCCAUGUCAGGAUAUCUUUGGAGGAGGCUUGCCGAUGAUAGAGAGAAGGGACAGGUA [Eternabot (L2) Solution 70] (Eterna round: R97, puzzle: Exclusion 1)",26.7 nM,22.4 nM,,
CGUACUGAAGUAAGGAUAUUGUCUCGGAUACGAAACAAGAAGGUACAUGAGGAUCACCCAUGUUGACAGUACGA [Malc #30 mod 8] (puzzle: Brourd's mod of Exclusion 4),,,14 nM,
"AUAAUGUCAGGAUAUCGAGACUACUGCUUCGGCAGUAGUCUCGAGAAGGGACAUGAGGAUCACCCAUGUGAUCA [E4/1-A1] (Eterna round: R97, puzzle: Exclusion 4)",41.8 nM,40.8 nM,,
"UGUCAGAUGGUAGGAUAUUCAUAUCGAGUGACCCUUUCAUAACAUGAGGAUCACCCAUGUCGGUGGGAGAAGGGCCGUAUGGUG [salish99_ExNG02_R04_030] (Eterna round: R96, puzzle: Exclusion NG 2)",,,,apparent KD of MS2 coat protein [1]: 22.7 nM
"UUAUUAUAUGUAGGAUAUGCAUAUUAUUAUUAUGCAGAAGGACAUGAGGAUCACCCAUGUAUAUUGUUAUUAUAUAUUAUAUAU [Title] (Eterna round: R96, puzzle: Exclusion NG 1)",,,,apparent KD of MS2 coat protein [1]: 21.7 nM
UGGUAACAUGAGGAUCACCCAUGUCAGGAUAUCAGUAAGAAUAGAUUAGAUUAGAAUAUGAGAAGGGACUAUAG [Excluse me! 3 - Jieux - Exclusion 1] (puzzle: Exclusion 1),,,38.9 nM,apparent KD of MS2 coat protein [3]: 38.5 nM; apparent KD of MS2 coat protein [4]: 47.8 nM
UUUUAACAUGAGGAUCACCCAUGUGAGGAUAUCGAAAUUUAUAUUAAUAUUAAUUUUACGAGAAGGCACAUUUU [JMF 34] (puzzle: Exclusion 1),,,94.6 nM,
"UGUACUAACACGAAAGUGUUAGUACAAUAAGCUUGUGUUACAUGAGGAUCACCCAUGUCCUCAUAAGCUCGUCUUAU [Mat - Sensor v3 - Turn-off var 2 - D51] (puzzle: Sensor v3, turn-off variant 2)",,,52.3 nM,apparent KD of MS2 coat protein [3]: 88.2 nM; apparent KD of MS2 coat protein [4]: 99.2 nM
GACUAGGCAGGAUAUACAUGAGGAUCACCCAUGUGUCUGCGUUGGGCACGUGAACACCGUAGAAGGGCCUUGAC [ChP 13.04.2015 #14] (puzzle: Exclusion 3),,,14.4 nM,
"AGCUGUGGCCGAGGAUAUCUAAUAUCUCAAACCGAAAUAUAAUCGGACAUGAGGAUCACCCAUGUAGAGAAGGCGGUCUCAGCA [Eli eng2 - 064] (Eterna round: R96, puzzle: Exclusion NG 2)",,,,apparent KD of MS2 coat protein [1]: 23.6 nM
UAUACACAUGAGGAUCACCCAUGUGAGGAUAUGUAAAAAAAACCGACGGUUUUUUUUUACAGAAGGCACAUAUA [JR_Exclusion1_Sub026] (puzzle: Exclusion 1),,,52.5 nM,
